According to paper PMC1361615 (Nucleic Acids Research, 2006):

Target: the molecule itself
Assay: SEC

B1: His-tagged RsrI N6-adenine DNA methyltransferase (M.RsrI), wild type (enzyme, UniProt P14751 1-319, looked up)
chain: MANRSHHNAGHRAMNALRKSGQKHSSESQLGSSEIGTTRHVYDVCDCLDTLAKLPDDSVQLIICDPPYNIMLADWDDHMDYIGWAKRWLAEAERVLSPTGSIAIFGGLQYQGEAGSGDLISIISHMRQNSKMLLANLIIWNYPNGMSAQRFFANRHEEIAWFAKTKKYFFDLDAVREPYDEETKAAYMKDKRLNPESVEKGRNPTNVWRMSRLNGNSLERVGHPTQKPAAVIERLVRALSHPGSTVLDFFAGSGVTARVAIQEGRNSICTDAAPVFKEYYQKQLTFLQDDGLIDKARSYEIVEGAANFGAALQRGDVAS
stoichiometry N: 2
